Reference: US20220313840A1 (ACADEMIA SINICA, published 2022)

Columns and labels:
[1] = target: T1, endogenous EGFR on human carcinoma cell lines (human, UniProt P00533 25-1210); assay: cell ELISA on human carcinoma cell lines with endogenous EGFR
T1 construct: whole, on cells; EGFR expression of the cell lines was checked by Western blotting; also called endogenous cellular EGFR; EGFR on FaDu and Ca9-22 cells

[2] = target: T1, endogenous EGFR on human carcinoma cell …; assay: cell uptake, including EGFR-knockdown cells
Description: To evaluate whether internalization and targeting were preserved after EGFR-s10 ligation to liposomes, we tested EGFR-s10-conjugated liposomal SRB in the SCCHN cell lines FaDu and Ca9-22 cells at 37° C. for 30 min (FIGS. 3C-D). No compromise of internalization capacity was discernable in either cell line compared to the previous soluble EGFR-s10.

[3] = target: T1, endogenous EGFR on human carcinoma cell …; assay: confocal microscopy of FaDu and Ca9-22 cells, anti-FLAG detection
Description: We produced soluble scFv from EGFR-PC10 and designated it as EGFR-s10. Target binding and internalization are essential requirements of LTL-targeting moieties. We investigated these features of EGFR-s10 in SCCHN cancer cell lines. FaDu cells and Ca9-22 cells were separately incubated with EGFR-sl0 at 4° C. or 37° C. for 30 min and compared with isotypic IgG controls. EGFR-sl0 bound to the cell membrane of FaDu and Ca9-22 cells at 4° C. […] (FIGS. 3A-B).

B1: EGFR-PC10 phage clone (phage-displayed human anti-EGFR scFv) (scFv)
scFv: EVQLVESGGGLVQPGGSLRLSCAASGFNLSSFWMSWVRQAPGKGLEWVANINHDGSDKYYVDSVKGRFSISRDNTKNSVYLQMDSLRGEDTAVYYCAKGKSLYDGSALDMWGQGTMVTVSSGGGGSGGGGSGGGGSDIVMTQSPSTLSASVGDRVTITCRASQTIGRWLAWYQQKPGKAPKLLIYGASSLQSGVPSRFSGSGSGTDFTLTISSLQPEDFATYYCQQSYSTLWTFGQGTKLEIKR
notes: Tested as whole phage particles displaying the scFv, detected with anti-M13 antibody; also called EFGR-PC10 phage; not shown: phage coat protein fusion of the M13 display system; not described
binding result [1]: binds

B2: EGFR-s10-conjugated ligand-targeting liposomes (LTLs) (other)
scFv: EVQLVESGGGLVQPGGSLRLSCAASGFNLSSFWMSWVRQAPGKGLEWVANINHDGSDKYYVDSVKGRFSISRDNTKNSVYLQMDSLRGEDTAVYYCAKGKSLYDGSALDMWGQGTMVTVSSGGGGSGGGGSGGGGSDIVMTQSPSTLSASVGDRVTITCRASQTIGRWLAWYQQKPGKAPKLLIYGASSLQSGVPSRFSGSGSGTDFTLTISSLQPEDFATYYCQQSYSTLWTFGQGTKLEIKR
modifications: reduced cysteine of the tag conjugated to Maleimide-PEG-DSPE inserted in a PEGylated liposome loaded with doxorubicin or vinorelbine
notes: also called EGFR-s10-LD; EGFR-s10-LV; not shown: flag, 6xHis and cysteine tag from the pFHC vector
binding result [2]: binds

B3: EGFR-s10 scFv (soluble scFv generated from phage clone EGFR-PC10) (scFv)
scFv: EVQLVESGGGLVQPGGSLRLSCAASGFNLSSFWMSWVRQAPGKGLEWVANINHDGSDKYYVDSVKGRFSISRDNTKNSVYLQMDSLRGEDTAVYYCAKGKSLYDGSALDMWGQGTMVTVSSGGGGSGGGGSGGGGSDIVMTQSPSTLSASVGDRVTITCRASQTIGRWLAWYQQKPGKAPKLLIYGASSLQSGVPSRFSGSGSGTDFTLTISSLQPEDFATYYCQQSYSTLWTFGQGTKLEIKR
notes: Expressed in E. coli HB2151 from the pFHC vector; also called EGFR-sl0; soluble anti-EGFR human scFv; not shown: flag, 6xHis and cysteine tag from the pFHC vector
binding result [3]: binds
